Results on 17 molecules are retold here after patent US20210380703A1 (RIGEL PHARMACEUTICALS, published 2021).

One assay addresses T1, human ACVR2A (human, UniProt P27037 20-135, limits assumed).
T1 construct: also called activin receptor, type II A
The experiment in a line: ELISA. In a few lines:
(§1)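 ELISA measured binding of ACVR2A-specific monoclonal antibodies to human and mouse ACVR2A. Biotinylated goat anti-human kappa light chain served as positive control and human Fc as negative control.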

The next assay has as its target mouse ACVR2A (mouse, UniProt P27038 20-135, limits assumed). Nature of the assay: ELISA. The essentials:
as §1

Assay [1] concerns the target T2, biotinylated goat anti-human kappa light chain.
T2 construct: positive control of the ELISA
The experiment in a line: ELISA, positive control. The essentials: as §1
Further: test concentration or dose not given here.

T1 sequence (P27037 20-135 limits assumed): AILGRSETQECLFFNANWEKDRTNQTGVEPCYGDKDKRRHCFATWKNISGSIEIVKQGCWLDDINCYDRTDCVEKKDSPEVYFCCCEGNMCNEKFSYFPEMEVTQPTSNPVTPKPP
Sequence of mouse ACVR2A (P27038 20-135 limits assumed): as the sequence (P27037 20-135 limits assumed) above, with K20R, V73I counted along it

B1: 367_F08 (antibody, V domains shown)
VH: EVQLLESGGGLVQPGGSLRLSCAASGFTFSSYGMHWVRQAPGKGLEWVSSINYNSGYTSYADSVKGRFTISRDNSKNTLYLQMNSLRAEDTAVYYCARAATWHDTHLDYWGQGTLVTVSS
VL: DIQMTQSPSSLSASVGDRVTITCRASQSILSYVNWYQQKPGKAPKLVIYAATSRASGVPSRFSGSGSGTDFTLTISSLQPEDFATYYCQQSNELPLTFGGGTKVEIK
notes: Group II
In the case of B1, the figures for the optical density (with human ACVR2A; with mouse ACVR2A; in assay [1]) were 2.08 OD, 2.19 OD and 3.54 OD, respectively.

B2: 368_B12 (antibody, V domains shown)
VH: EVQLLESGGGLVQPGGSLRLSCAASGFTFDSYGMHWVRQAPGKGLEWVSGINYNSGYTSYADSVKGRFTISRDNSKNTLYLQMNSLRAEDTAVYYCARAATWHDTHLDYWGQGTLVTVSS
VL: DIQMTQSPSSLSASVGDRVTITCRASQSIVSYVNWYQQKPGKAPKLLIYAATSRASGVPSRFSGSGSGTDFTLTISSLQPEDFATYYCQQSYDLPLTFGGGTKVEIK
notes: Group II
Take B2: the optical density with human ACVR2A is 2.51 OD; in the assay with mouse ACVR2A, 2.47 OD; in assay [1] it was 3.49 OD.

B3: 368_A12 (antibody, V domains shown)
VH: EVQLLESGGGLVQPGGSLRLSCAASGFTFDSYSMHWVRQAPGKGLEWVSSINYNSGYKGYADSVKGRFTISRDNSKNTLYLQMNSLRAEDTAVYYCARAANWHDTALDYWGQGTLVTVSS
VL: DIQMTQSPSSLSASVGDRVTITCRASQSILTYLNWYQQKPGKAPKLVIYAATSRASGVPSRFSGSGSGTDFTLTISSLQPEDFATYYCQQSYDSPLTFGGGTKVEIK
notes: Group I
As for B3, the results for the optical density (with human ACVR2A; in the assay with mouse ACVR2A; in assay [1]) were 3.01 OD, 2.78 OD and 3.69 OD, respectively.

B4: 368_B04 (antibody, V domains shown)
VH: EVQLLESGGGLVQPGGSLRLSCAASGFTFDSYGMHWVRQAPGKGLEWVSSINYNGGYTSYADSVKGRFTISRDNSKNTLYLQMNSLRAEDTAVYYCARAATWHDTHLDYWGQGTLVTVSS
VL: DIQMTQSPSSLSASVGDRVTITCRASQSIVSYLNWYQQKPGKAPKLVIYAATSRASGVPSRFSGSGSGTDFTLTISSLQPEDFATYYCQQSYENPLTFGGGTKVEIK
notes: Group II
Consider B4, for which the optical density in the assay with human ACVR2A came to 2.27 OD; in the assay with mouse ACVR2A it was 2.73 OD; in assay [1], 3.29 OD.

B5: 367_H08 (antibody, V domains shown)
VH: EVQLLESGGGLVQPGGSLRLSCAASGFTFDSYGMNWVRQAPGKGLEWVSSINYNGGYTSYADSVKGRFTISRDNSKNTLYLQMNSLRAEDTAVYYCARAATWHDTHLDYWGQGTLVTVSS
VL: DIQMTQSPSSLSASVGDRVTITCRASQSILTYVNWYQQKPGKAPKLLIYAATSRHSGVPSRFSGSGSGTDFTLTISSLQPEDFATYYCQQSYNLPLTFGGGTKVEIK
notes: Group II
Regarding B5, the figures for the optical density (with human ACVR2A; in the assay with mouse ACVR2A; in assay [1]) were 2.27 OD, 2.47 OD and 3.54 OD, respectively.

B6: 367_G03 (antibody, V domains shown)
VH: EVQLLESGGGLVQPGGSLRLSCAASGFTFDSYSMHWVRQAPGKGLEWVANINYNGGYTSYADSVKGRFTISRDNSKNTLYLQMNSLRAEDTAVYYCARAATWHDTHLDYWGQGTLVTVSS
VL: DIQMTQSPSSLSASVGDRVTITCRASQSIVSYVNWYQQKPGKAPKLVIYAATSRHSGVPSRFSGSGSGTDFTLTISSLQPEDFATYYCQQSYDLPLTFGGGTKVEIK
notes: Group II
B6: the values for the optical density (with human ACVR2A; with mouse ACVR2A; in assay [1]) were 2.59 OD, 2.63 OD and 3.6 OD, respectively.

B7: 368_A06 (antibody, V domains shown)
VH: EVQLLESGGGLVQPGGSLRLSCAASGFTFDSYSMHWVRQAPGKGLEWVAGINYNSGYKGYADSVKGRFTISRDNSKNTLYLQMNSLRAEDTAVYYCARAANWHDTHLDYWGQGTLVTVSS
VL: DIQMTQSPSSLSASVGDRVTITCRASQSILSYVNWYQQKPGKAPKLLIYAATSRHSGVPSRFSGSGSGTDFTLTISSLQPEDFATYYCQQSYNSPLTFGGGTKVEIK
notes: Group I
Turning to B7, the optical density with human ACVR2A stood at 2.25 OD; in the assay with mouse ACVR2A it was 2.52 OD; in assay [1] it was 3.28 OD.

B8: 367_F10 (antibody, V domains shown)
VH: EVQLLESGGGLVQPGGSLRLSCAASGFTFDSYGMNWVRQAPGKGLEWVSGINYNSGYTSYADSVKGRFTISRDNSKNTLYLQMNSLRAEDTAVYYCARAATWHDTHLDYWGQGTLVTVSS
VL: DIQMTQSPSSLSASVGDRVTITCRASQSILTYLNWYQQKPGKAPKLLIYAATSRASGVPSRFSGSGSGTDFTLTISSLQPEDFATYYCQQSYDTPLTFGGGTKVEIK
notes: Group II
B8: the optical density is 2.21 OD with human ACVR2A, 2.36 OD in the assay with mouse ACVR2A and 3.42 OD in assay [1].

B9: 368_B08 (antibody, V domains shown)
VH: EVQLLESGGGLVQPGGSLRLSCAASGFTFDSYGMNWVRQAPGKGLEWVSSINYNGGYTSYADSVKGRFTISRDNSKNTLYLQMNSLRAEDTAVYYCARAANWHDTHLDYWGQGTLVTVSS
VL: DIQMTQSPSSLSASVGDRVTITCRASQSILTYVNWYQQKPGKAPKLVIYAATSRASGVPSRFSGSGSGTDFTLTISSLQPEDFATYYCQQSYENPLTFGGGTKVEIK
notes: Group I
On to B9, for which the optical density in the assay with human ACVR2A stood at 1.98 OD; with mouse ACVR2A, 2.18 OD; in assay [1], 3.21 OD.

B10: 368_B03 (antibody, V domains shown)
VH: EVQLLESGGGLVQPGGSLRLSCAASGFTFDDYGMNWVRQAPGKGLEWVSGINYNGGYTSYADSVKGRFTISRDNSKNTLYLQMNSLRAEDTAVYYCARAANWHDTALDYWGQGTLVTVSS
VL: DIQMTQSPSSLSASVGDRVTITCRASQSILTYLNWYQQKPGKAPKLVIYAATSLASGVPSRFSGSGSGTDFTLTISSLQPEDFATYYCQHSYENPLTFGGGTKVEIK
notes: Group I
Regarding B10, the optical density with human ACVR2A is 2.04 OD; in the assay with mouse ACVR2A it was 2.04 OD; in assay [1], 3.38 OD.

B11: 368_B11 (antibody, V domains shown)
VH: EVQLLESGGGLVQPGGSLRLSCAASGFTFDSYGMHWVRQAPGKGLEWVSGINYNGGYKSYADSVKGRFTISRDNSKNTLYLQMNSLRAEDTAVYYCARAANWHDTHLDYWGQGTLVTVSS
VL: DIQMTQSPSSLSASVGDRVTITCRASQSILSYLNWYQQKPGKAPKLLIYAASSLQSGVPSRFSGSGSGTDFTLTISSLQPEDFATYYCQQSYDSPLTFGGGTKVEIK
notes: Group I
As to B11, the optical density with human ACVR2A stood at 2.14 OD; with mouse ACVR2A it was 2.35 OD; in assay [1] it was 3.61 OD.

B12: 368_A02 (antibody, V domains shown)
VH: EVQLLESGGGLVQPGGSLRLSCAASGFTFDSYGMNWVRQAPGKGLEWVAGINYNGGYKSYADSVKGRFTISRDNSKNTLYLQMNSLRAEDTAVYYCARAANWHDTHLDYWGQGTLVTVSS
VL: DIQMTQSPSSLSASVGDRVTITCRASQSIISYVNWYQQKPGKAPKLVIYAATSRASGVPSRFSGSGSGTDFTLTISSLQPEDFATYYCQQSYDTPLTFGGGTKVEIK
notes: Group I
B12: the optical density in the assay with human ACVR2A came to 2.57 OD; with mouse ACVR2A it was 2.74 OD; in assay [1], 3.69 OD.

B13: 368_C04 (antibody, V domains shown)
VH: EVQLLESGGGLVQPGGSLRLSCAASGFTFDSYGMHWVRQAPGKGLEWVSNINYNGGYTSYADSVKGRFTISRDNSKNTLYLQMNSLRAEDTAVYYCARAATWHDTHLDYWGQGTLVTVSS
VL: DIQMTQSPSSLSASVGDRVTITCRASQSILSYVNWYQQKPGKAPKLLIYAATSRASGVPSRFSGSGSGTDFTLTISSLQPEDFATYYCQQSYSTPLTFGGGTKVEIK
notes: Group II
For B13, the optical density was 2.48 OD with human ACVR2A, 2.47 OD with mouse ACVR2A and 3.67 OD in assay [1].

B14: 368_B10 (antibody, V domains shown)
VH: EVQLLESGGGLVQPGGSLRLSCAASGFTFDSYGMHWVRQAPGKGLEWVASINYNGGYTSYADSVKGRFTISRDNSKNTLYLQMNSLRAEDTAVYYCARAANWHDTALDYWGQGTLVTVSS
VL: DIQMTQSPSSLSASVGDRVTITCRASQSILTYLNWYQQKPGKAPKLVIYAATSRASGVPSRFSGSGSGTDFTLTISSLQPEDFATYYCQQSDELPLTFGGGTKVEIK
notes: Group I
For B14, the optical density with human ACVR2A was 2.35 OD; with mouse ACVR2A it was 2.42 OD; in assay [1] it was 3.02 OD.

B15: 367_H01 (antibody, V domains shown)
VH: EVQLLESGGGLVQPGGSLRLSCAASGFTFDSYGMNWVRQAPGKGLEWVSGINYNGGYKSYADSVKGRFTISRDNSKNTLYLQMNSLRAEDTAVYYCARAANWHDTALDYWGQGTLVTVSS
VL: DIQMTQSPSSLSASVGDRVTITCRASQSILTYLNWYQQKPGKAPKLVIYAATSRASGVPSRFSGSGSGTDFTLTISSLQPEDFATYYCQQSYDNPLTFGGGTKVEIK
notes: Group I
As for B15, the optical density is 2.82 OD with human ACVR2A, 2.69 OD in the assay with mouse ACVR2A and 3.65 OD in assay [1].

B16: 368_C07 (antibody, V domains shown)
VH: EVQLLESGGGLVQPGGSLRLSCAASGFTFSSYGMHWVRQAPGKGLEWVAGINYNSGYTSYADSVKGRFTISRDNSKNTLYLQMNSLRAEDTAVYYCARAATWHDTHLDYWGQGTLVTVSS
VL: DIQMTQSPSSLSASVGDRVTITCRASQSIVSYVNWYQQKPGKAPKLVIYAATSRASGVPSRFSGSGSGTDFTLTISSLQPEDFATYYCQQSYENPLTFGGGTKVEIK
notes: Group II
With B16, the optical density with human ACVR2A was 2.58 OD; with mouse ACVR2A, 2.37 OD; in assay [1], 3.31 OD.

B17: 367_G11 (antibody, V domains shown)
VH: EVQLLESGGGLVQPGGSLRLSCAASGFTFSSYGMHWVRQAPGKGLEWVASINYNGGYTSYADSVKGRFTISRDNSKNTLYLQMNSLRAEDTAVYYCARAATWHDTHLDYWGQGTLVTVSS
VL: DIQMTQSPSSLSASVGDRVTITCRASQSILTYLNWYQQKPGKAPKLLIYAATSRHSGVPSRFSGSGSGTDFTLTISSLQPEDFATYYCQQSDDSPLTFGGGTKVEIK
notes: Group II
Consider B17, for which the optical density worked out at 2.56 OD with human ACVR2A, 2.67 OD in the assay with mouse ACVR2A and 3.56 OD in assay [1].
